Test results reported in EP4534102A1, “ANTIBODY DRUG CONJUGATE (ADC) TARGETING NECTIN 4 AND COMPRISING AN EXATECAN PAYLOAD” (Eli Lilly and Company, priority 2023, dated 2025).

Assay: Aggregation by SEC-HPLC
Type: physicochemical
Procedure: As determined by SEC-HPLC, less than 5% material was aggregated. […] (See Figure 2 and corresponding Brief Description). […] (See Figure 3 and corresponding Brief Description). In vitro cytotoxic activity was assessed for the HCT-116-2G10 clone expressing human nectin-4. (See Figure 4 and corresponding Brief Description).
As a comparator ADC, the HA22 anti-Nectin-4 mAb was conjugated to maleimidocaproyl-valine-citrulline-PABC-MMAE to generate enfortumab vedotin. Briefly, a 15 mg/mL solution of the HA22 in 10 mM acetate 1% sorbitol, 3% L-arginine, pH 5.0 was supplemented with a 20% volume of 0.1 M Tris, 25 mM EDTA and 750 mM NaCl, pH 8.4 to adjust the pH of the solution to 7.5, 5 mM EDTA and 150 mM sodium chloride. […] The mixture was stirred for 60 minutes at 5° C, then for 15 additional minutes following the addition of 1 molar equivalents of N-acetylcysteine relative to cysteine reactive linker-MMAE compound. Excess quenched cysteine reactive linker-payload and other reaction components were removed by ultrafiltration/diafiltration of the antibody drug conjugate (ADC) with 10 volumes of 20 mM histidine, pH 6.0. The drug-antibody ratio (DAR) according to LC-MS analysis was 3.79 toxins per conjugated mAb. As determined by SEC-HPLC, less than 1% material was aggregated.

Substance: enfortumab vedotin: HA22 anti-Nectin-4 mAb conjugated to maleimidocaproyl-valine-citrulline-PABC-MMAE; comparator ADC
- material aggregated: less than 1%
